Measured values as given in US20210032331A1 (PHANES THERAPEUTICS, published 2021).
Values belong to the binder of their own block, whether it stands above or below them.

Assays:
[1] = biological target: T1, BG29 (human IgG4 heavy chain and kappa light chain chimeric); assay: ELISA peptide competition: peptide preincubated with chimeric IgG4 BG29, competitor hLAG3-mFc; capture on anti-human IgG, anti-mouse IgG-HRP
T1 construct: Chimeric: mouse VH and VL with human IgG4 heavy chain and kappa light chain constant regions; also called chimeric BG29
T1 sequence (VH, as listed by the source, chain 1 of 2): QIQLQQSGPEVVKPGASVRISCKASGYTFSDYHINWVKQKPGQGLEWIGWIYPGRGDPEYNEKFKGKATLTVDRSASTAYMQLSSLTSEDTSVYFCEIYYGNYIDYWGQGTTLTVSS
T1 sequence (VL, as listed by the source, chain 2 of 2): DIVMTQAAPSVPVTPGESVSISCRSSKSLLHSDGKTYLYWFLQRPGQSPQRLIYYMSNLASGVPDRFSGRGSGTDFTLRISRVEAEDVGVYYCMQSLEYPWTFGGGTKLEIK
Protocol: (§1) FIGS. 5A-5D show the effect of competition peptides on LAG-3 binding to anti-LAG-3 mAbs. […] B5/IgG4 was preincubated with a competition peptide for 30 minutes. Then human LAG-3 extracellular domain (ECD) fused to mouse Fc (hLAG3-mFc) was added (the final peptide concentration was 600-fold that of hLAG3-mFc) and the mixture was incubated for 60 minutes before being added to an ELISA plate coated with anti-human IgG. The incubation was carried out at 4° C. overnight. After washing, the hLAG3-mFc bound to the immobilized B5/IgG4 on the ELISA plate was detected by adding anti-mouse IgG conjugated to horseradish peroxidase (HRP) and incubating for 60 minutes. Then, after washing, the ELISA was developed using One-step Detection Solution and measured as the absorbance at 450 nm.
(§2) Anti-human IgG in carbonate coating buffer was coated on an ELISA plate at 4° C. (50 μL/well at 1 μg/mL) overnight. In each well of a separate plate, a chimeric version of a given anti-LAG-3 mAb (50 μL/well at 1.4 nM) and a competition peptide (50 μL/well at various concentrations as indicated in the figures) were mixed and incubated for 30 minutes at room temperature. Then human LAG-3 extracellular domain (ECD) fused to mouse Fc (hLAG3-mFc) was added to each well (50 μL/well at 2 nM) and the final mixture was incubated at room temperature for 60 minutes before added to the ELISA plate (50 μL/well) for another 60-minute incubation. The final incubation after adding the mixture to the ELISA plate was also performed at 4° C. overnight in some assays. The plate was washed and the binding of hLAG3-mFc to the immobilized anti-LAG-3 mAb was detected by adding anti-mouse IgG conjugated to horseradish peroxidase ([…]) (ThermoFisher Scientific, Cat#: A16084; Waltham, Mass.) and incubating for 60 minutes.

B5/IgG4 [2] = biological target: T2, B5/IgG4; assay: ELISA peptide competition: peptide preincubated with B5/IgG4, competitor hLAG3-mFc; capture on anti-human IgG, anti-mouse IgG-HRP
T2 construct: Chimeric: mouse VH and VL with human IgG4 heavy chain and kappa light chain constant regions; also called B5 (human IgG4 heavy chain and kappa light chain chimeric)
Protocol: as §1, §2

[3] = biological target: T3, B12 (human IgG1 heavy chain and kappa light chain chimeric); assay: ELISA peptide competition: peptide preincubated with chimeric IgG1 B12, competitor hLAG3-mFc; capture on anti-human IgG, anti-mouse IgG-HRP
T3 construct: Chimeric: mouse VH and VL with human IgG1 heavy chain and kappa light chain constant regions
T3 sequence (VH, as listed by the source, chain 1 of 2): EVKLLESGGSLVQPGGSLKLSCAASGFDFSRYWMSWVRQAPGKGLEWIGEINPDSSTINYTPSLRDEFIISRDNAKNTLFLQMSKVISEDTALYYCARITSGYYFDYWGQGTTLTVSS
T3 sequence (VL, as listed by the source, chain 2 of 2): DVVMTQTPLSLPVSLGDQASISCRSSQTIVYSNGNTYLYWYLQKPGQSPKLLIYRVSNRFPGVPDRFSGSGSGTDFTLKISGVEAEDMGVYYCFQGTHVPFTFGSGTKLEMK
Protocol: as §1, §2

[4] = biological target: T1, BG29 (human IgG4 heavy chain and kappa …); assay: ELISA peptide competition: peptide preincubated with chimeric IgG4 BG29, competitor hLAG3-mFc; peptide at 200-fold hLAG3-mFc; capture on anti-human IgG, anti-mouse IgG-HRP
Protocol: as §1, §2

B5/IgG4 [5] = biological target: T2, B5/IgG4; assay: ELISA peptide competition: peptide preincubated with B5/IgG4, competitor hLAG3-mFc; peptide at 600-fold hLAG3-mFc; capture on anti-human IgG, anti-mouse IgG-HRP
Protocol: as §1, §2

B7/IgG4 = biological target: T4, B7/IgG4; assay: ELISA peptide competition: peptide preincubated with B7/IgG4, competitor hLAG3-mFc; final incubation 60 min at room temperature; anti-mouse IgG-HRP
T4 construct: Chimeric: mouse VH and VL with human IgG4 heavy chain and kappa light chain constant regions; also called B7 (human IgG4 heavy chain and kappa light chain chimeric)
T4 sequence (VH, as listed by the source): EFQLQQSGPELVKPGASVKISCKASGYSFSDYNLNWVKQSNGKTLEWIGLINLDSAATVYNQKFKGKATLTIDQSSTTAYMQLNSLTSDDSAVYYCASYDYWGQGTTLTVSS
Protocol: B5/IgG4 was preincubated with a competition peptide for 30 minutes. Then human LAG-3 extracellular domain (ECD) fused to mouse Fc (hLAG3-mFc) was added (the final peptide concentration was 600-fold that of hLAG3-mFc) and the mixture was incubated for 60 minutes before being added to an ELISA plate coated with anti-human IgG. The incubation was carried out at 4° C. overnight. After washing, the hLAG3-mFc bound to the immobilized B5/IgG4 on the ELISA plate was detected by adding anti-mouse IgG conjugated to horseradish peroxidase (HRP) and incubating for 60 minutes. Then, after washing, the ELISA was developed using One-step Detection Solution and measured as the absorbance at 450 nm.
The assay condition is the same as in FIG. 5A except that the final incubation of the mAb, the competition peptide, and hLAG3-mFc on the ELISA plate was performed at room temperature for 60 minutes instead of incubation at 4° C. overnight.
Anti-human IgG in carbonate coating buffer was coated on an ELISA plate at 4° C. (50 μL/well at 1 μg/mL) overnight. In each well of a separate plate, a chimeric version of a given anti-LAG-3 mAb (50 μL/well at 1.4 nM) and a competition peptide (50 μL/well at various concentrations as indicated in the figures) were mixed and incubated for 30 minutes at room temperature. Then human LAG-3 extracellular domain (ECD) fused to mouse Fc (hLAG3-mFc) was added to each well (50 μL/well at 2 nM) and the final mixture was incubated at room temperature for 60 minutes before added to the ELISA plate (50 μL/well) for another 60-minute incubation.

[6] = biological target: T3, B12 (human IgG1 heavy chain and kappa …); assay: ELISA peptide competition: peptide preincubated with chimeric IgG1 B12, competitor hLAG3-mFc; peptide at 600-fold hLAG3-mFc; capture on anti-human IgG, anti-mouse IgG-HRP
Protocol: as §1, §2

[7] = biological target: T5, full-length human LAG-3 on stably transfected CHO-S cells (human, UniProt P18627 23-525); assay: FACS, CHO-S cells stably transfected with full-length human LAG-3, PE anti-mouse IgG
T5 construct: also called hLAG3
T5 sequence: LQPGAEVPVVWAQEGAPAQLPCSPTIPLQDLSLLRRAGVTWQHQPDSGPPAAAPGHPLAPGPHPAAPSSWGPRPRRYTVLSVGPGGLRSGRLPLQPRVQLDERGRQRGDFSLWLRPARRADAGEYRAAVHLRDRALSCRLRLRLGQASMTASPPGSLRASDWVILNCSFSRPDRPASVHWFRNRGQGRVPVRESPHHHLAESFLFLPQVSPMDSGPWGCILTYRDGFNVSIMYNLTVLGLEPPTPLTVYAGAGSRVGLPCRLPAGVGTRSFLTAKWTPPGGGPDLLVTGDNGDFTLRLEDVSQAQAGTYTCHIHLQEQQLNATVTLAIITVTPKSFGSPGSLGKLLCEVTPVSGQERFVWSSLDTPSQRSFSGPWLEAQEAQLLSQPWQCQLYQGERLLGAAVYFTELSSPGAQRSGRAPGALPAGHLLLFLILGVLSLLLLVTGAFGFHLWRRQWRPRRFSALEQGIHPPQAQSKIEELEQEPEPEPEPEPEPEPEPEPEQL
Protocol: CHO-S cells stably transfected with full-length human LAG-3 were transferred to a 96-well plate. Around 200,000 cells were incubated with either purified chimeric anti-LAG-3 mAbs (variable regions of mouse mAbs fused to the constant regions of human IgG1 heavy chain and kappa light chain, respectively) or purified mouse anti-LAG-3 mAbs from hybridoma supernatants at various concentrations for 15 minutes at 4° C. Cells were then centrifuged at 1,000 rpm for 5 minutes and washed with FACS buffer (PBS supplemented with 5% BSA) three times. For the cells treated with the chimeric antibodies, the cells were then incubated with PE-conjugated goat anti-human IgG polyclonal antibodies and incubated on ice for another 15 minutes; for the cells treated with mouse mAbs, the cells were incubated with PE-conjugated goat anti-mouse IgG polyclonal antibodies and incubated on ice for another 15 minutes. Cells were then washed with FACS buffer three times and then resuspended in FACS buffer containing 0.1 μg/ml PI (propidium iodide) for live/dead cell gating. Cells were then run through the FACS Caliber instrument and the data were analyzed by the Flowjo software. Results of the FACS binding analysis of the mouse anti-LAG-3 mAbs (B1, B2, B3, B4, B5, B6, B7, B8, B9, B10, B11, B12, and B13) are provided in FIGS. 1A-1B.

human LAG-3(ECD)-huFc = biological target: T6, human LAG-3(ECD)-huFc (human, UniProt P18627 23-450); assay: SPR (Biacore): mAb from hybridoma supernatant captured on anti-mouse IgG CM5 chip, human LAG-3(ECD)-huFc 50-400 nM injected
T6 construct: also called Fc-tagged human LAG-3(ECD)-huFc; not shown: human Fc (huFc) at the C-terminus
T6 sequence: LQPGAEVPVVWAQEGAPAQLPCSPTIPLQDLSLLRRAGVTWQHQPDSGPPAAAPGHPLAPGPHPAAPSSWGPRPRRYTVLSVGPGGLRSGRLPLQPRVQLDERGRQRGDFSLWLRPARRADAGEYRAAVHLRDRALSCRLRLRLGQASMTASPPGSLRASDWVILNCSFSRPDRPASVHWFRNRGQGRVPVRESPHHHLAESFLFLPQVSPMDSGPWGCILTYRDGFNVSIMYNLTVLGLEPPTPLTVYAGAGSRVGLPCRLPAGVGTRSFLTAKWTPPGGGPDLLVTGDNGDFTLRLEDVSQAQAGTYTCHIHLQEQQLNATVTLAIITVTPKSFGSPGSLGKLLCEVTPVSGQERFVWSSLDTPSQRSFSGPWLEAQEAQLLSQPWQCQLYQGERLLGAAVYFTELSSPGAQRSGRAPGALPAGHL
Protocol: Anti-mouse IgG antibodies were immobilized via amine coupling on CM5 chip surface. Anti-LAG-3 mAbs in hybridoma supernatants were captured on the chip surface and a series of concentrations (50-400 nM) of human LAG-3(ECD)-huFc protein were injected and passed through the captured surface. The on and off rates for antibody-antigen binding were measured, curve fitted and calculated.

binding result [3]: no binding (tested: 600-fold hLAG3-mFc)
binding result [4]: binds
Binder: AAPGHPLAPG (also called peptide 5-14) [5-14]

binding result (B7/IgG4): no binding (tested: 600-fold hLAG3-mFc)
Binder: PHPAAPSSWGPR (also called peptide 15-26) [15-26]

binding result (B7/IgG4): no binding (tested: 600-fold hLAG3-mFc)
Binder: SSWGPRPRRY (also called peptide 21-30) [21-30]

binding result (B5/IgG4 [2]): no binding (tested: 600-fold hLAG3-mFc)
binding result [6]: binds
binding result [4]: binds
Binder: PAAAPGHPLAPG (also called peptide 3-14) [3-14]

binding result (B7/IgG4): no binding (tested: 600-fold hLAG3-mFc)
Binder: PSSWGPRPRRY (also called peptide 20-30) [20-30]

Continued, binder first:

Binder: APGHPLAP (also called peptide 6-13) [6-13]
binding result [1]: no binding (tested: 200-fold hLAG3-mFc)

Binder: QPDSGPPAAAPGHP (also called peptide Q14) [Q14]
binding result (B5/IgG4 [2]): no binding (tested: 600-fold hLAG3-mFc)
binding result [3]: no binding (tested: 600-fold hLAG3-mFc)

Binder: AAAPGHPLAPG (also called peptide 4-14) [4-14]
binding result [3]: no binding (tested: 600-fold hLAG3-mFc)
binding result [4]: binds

Binder: GPPAAAPGHPL (also called peptide 1-11) [1-11]
binding result (B5/IgG4 [2]): no binding (tested: 600-fold hLAG3-mFc)

Binder: GPPAAAPGHPLA (also called peptide 1-12) [1-12]
binding result [1]: no binding (tested: 200-fold hLAG3-mFc)
binding result (B5/IgG4 [5]): binds

Binder: QPDSGPPAAAPGHPL (also called peptide Q15) [Q15]
binding result (B5/IgG4 [2]): no binding (tested: 600-fold hLAG3-mFc)
binding result [3]: no binding (tested: 600-fold hLAG3-mFc)

Binder: APGHPLAPG (also called peptide 6-14) [6-14]
binding result [3]: no binding (tested: 600-fold hLAG3-mFc)
binding result [1]: no binding (tested: 200-fold hLAG3-mFc)

Binder: PGHPLAPG (also called peptide 7-14) [7-14]
binding result [1]: no binding (tested: 200-fold hLAG3-mFc)

B1: B9 (antibody, V domains shown)
VH: EVQLRQSGPVLVKPGASVKMSCKASGYTFTGYYMNWVKQSHGKSLEWLAVINPYNGDTAYNRKFKGRATLTVDKSSSTAYMELNRLTSEDSAVYYCVRDDGYHVRYFDVWGTGTTVTVSS
VL: DIQMTQSPSSLSASLGERVSLTCRASQDISDSLCWLQQKPDGTIKRLIYSTSTLDSGVPKRFSGSRSGSDYSLTISSLESEDFADYYCLQYASSPPTFGGGTKLEIK
notes: Mouse mAb from hybridoma; also called mouse anti-LAG-3 mAb B9
EC50 (read off the curve) [7]: ~0.2 µg/mL
Kd (human LAG-3(ECD)-huFc): 1.53 nM
